Experimental findings from patent publication US7297837 (Johns Hopkins, dated 2007) are described below.

This assay has as its target T1, full-length hMLH1 protein (human, UniProt P40692 1-756, 35S-labelled methionine where labelled).
T1 construct: Called full-length
T1 sequence (looked up): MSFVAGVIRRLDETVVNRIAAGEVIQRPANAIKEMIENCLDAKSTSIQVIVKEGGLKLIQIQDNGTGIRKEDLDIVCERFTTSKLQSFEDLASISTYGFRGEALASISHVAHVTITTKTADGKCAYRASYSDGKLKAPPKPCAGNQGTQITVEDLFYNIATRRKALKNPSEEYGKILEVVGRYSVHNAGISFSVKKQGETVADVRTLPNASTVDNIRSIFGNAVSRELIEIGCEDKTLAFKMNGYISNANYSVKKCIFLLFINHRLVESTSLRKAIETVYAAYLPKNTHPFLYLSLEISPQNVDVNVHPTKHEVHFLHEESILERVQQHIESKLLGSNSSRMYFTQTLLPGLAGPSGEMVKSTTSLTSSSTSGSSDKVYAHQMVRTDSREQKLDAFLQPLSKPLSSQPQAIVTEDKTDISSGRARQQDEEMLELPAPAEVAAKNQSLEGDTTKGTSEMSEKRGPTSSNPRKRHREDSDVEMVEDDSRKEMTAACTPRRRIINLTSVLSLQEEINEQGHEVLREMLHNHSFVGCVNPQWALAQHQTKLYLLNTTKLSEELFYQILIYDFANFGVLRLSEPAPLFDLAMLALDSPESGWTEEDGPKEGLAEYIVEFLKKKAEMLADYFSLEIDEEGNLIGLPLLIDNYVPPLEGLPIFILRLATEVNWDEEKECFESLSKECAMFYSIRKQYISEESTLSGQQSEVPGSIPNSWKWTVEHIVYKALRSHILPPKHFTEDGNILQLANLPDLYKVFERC
The experiment in a line: co-immunoprecipitation of in vitro translated proteins with anti-hMLH1 mAb (FIG. 5B, lane 1); converse with N-terminal hPMS2 antibody (FIG. 5C, lane 2). Here is the method:
Immunoprecipitation, Immunoprecipitations were performed on in vitro translated proteins by mixing the translation reactions with 1 μg of the MLH1 specific monoclonal antibody (mAB) MLH14 (Oncogene Science, Inc.), a polyclonal antibody generated to codons 2-20 of hPMS2 described above, or a polyclonal antibody generated to codons 843-862 of hPMS2 (Santa Cruz Biotechnology, Inc.) in 400 µl of EBC buffer (50 mM Tris, pH 7.5, 0.1 M NaCl, 0.5% NP40). After incubation for 1 hr at 4° C., protein A sepharose (Sigma) was added to a final concentration of 10% and reactions were incubated at 4° C. for 1 hour. Proteins bound to protein A were washed five times in EBC and separated by electrophoresis on 4-20% Tris-glycine gels, which were then dried and autoradiographed.
Previous studies have shown that these two proteins dimerize to form a functionally active complex (12, 28). Proteins were synthesized in vitro using reticulocyte lysates, employing RNA generated from cloned templates. The full-length hMLH1 and hPMS2 proteins bound to each other and were co-precipitated with antibodies to either protein, as expected (data not shown). […] When a ^35S-labelled, full length hMLH1 protein (FIG. 5A, lane 5) was mixed with the unlabelled carboxyl terminal hPMS2 polypeptide, a monoclonal antibody (mAb) to the carboxyl terminus of hPMS2 efficiently immunoprecipitated the labeled hMLH1 protein (lane 1). […]

B1: hPMS-134 (containing codons 1-134 of hPMS2), in vitro translated (other, human, UniProt P54278 1-134, looked up)
chain: MERAESSSTEPAKAIKPIDRKSVHQICSGQVVLSLSTAVKELVENSLDAGATNIDLKLKDYGVDLIEVSDNGCGVEEENFEGLTLKHHTSKIQEFADLTQVETFGFRGEALSSLCALSDVTISTCHASAKVGTR
modifications: 35S-labelled methionine
notes: The patient allele expressed in cells is said to give the N-terminal 133 amino acids
With B1, the binding result is recorded as “no binding”.
